B1: BD56-595 (antibody, V domains shown)
VH: QITLKESGPTLVKPTQTLTLTCTFSGFSITTAGVGVGWIRQPPGKALEWLALIYWDGDRRYSPSLKNRVDITTDISKNQVVLTMTNMAPVDTATYYCAQHTIDMILDYWGQGTLVTVSS
VL: QSALTQPPSASGSPGQSVTISCTATSSDVGAYNYVSWYQQHPGKAPKLMIYEVNKRPSGVPDRFSGSKSGNTASLTVSGLQAEDEADYYCSSYTDNIVFGTGTRVTVL
notes: heavy chain of BD56-595 (IGHV2-5*02, D56), not modified; light chain of BD56-595; IgG1; source: Expi 293, transfected, purified (protein A)
B2: XGv-265 (antibody, V domains shown)
VH: QITLKESGPTLVKPTQTLTLTCNFSGFSLNTYGVGVGWIRQPPGKALEWLALIYWDGDERYGPFFKNKVTIAKDTSKNQVVLTMTNMDPVDTATYYCARHLIPTIFDYWGQGTLVTVSS
VL: QSALTQPASVSGSPGQSITISCTGTSSDVGGSNYVSWYQHHPDRAPKLLIYEVTNRPSGVSNRFSGSKSANTASLTISGLQAEDEADYYCSSYTTTSTHILFGGGTKLTV
notes: heavy chain of XGv-265 (IGHV2-5*02, D56), not modified; light chain of XGv-265; IgG1; source: Expi 293, transfected, purified (protein A)
B3: BD56-1290 (antibody, V domains shown)
VH: QITLKESGPTLVKPTQTLTLTCTFSGFSLSTSGVGVGWIRQPPGKALEWLALIYWDDDSRYSPSLKTRLTITKDTSKNQVVLTLTNMDPVDTATYYCGHFTIDMIVGYWGQGTLVTVSS
VL: QSALTQPASVSGSPGQSITISCTATSIDVGAFHYVSWYQHHPGKAPKLIIFDVTNRPSGVSNRFSGSKSGNTASLTISGLQAEDEADYYCSSYTDSTVVFGGGTKLTVL
notes: heavy chain of BD56-1290 (IGHV2-5*02, D56), not modified; light chain of BD56-1290; IgG1; source: Expi 293, transfected, purified (protein A)
B4: LY-CoV1404 (antibody, V domains shown)
VH: QITLKESGPTLVKPTQTLTLTCTFSGFSLSISGVGVGWLRQPPGKALEWLALIYWDDDKRYSPSLKSRLTISKDTSKNQVVLKMTNIDPVDTATYYCAHHSISTIFDHWGQGTLVTVSS
VL: QSALTQPASVSGSPGQSITISCTATSSDVGDYNYVSWYQQHPGKAPKLMIFEVSDRPSGISNRFSGSKSGNTASLTISGLQAEDEADYYCSSYTTSSAVFGGGTKLTVL
notes: heavy chain of LY-CoV1404 (IGHV2-5*02, D56), not modified; variable region in PDB 7MMO; light chain of LY-CoV1404; IgG1; source: Expi 293, transfected, purified (protein A)
B5: BD57-028 (antibody, V domains shown)
VH: QITLKESGPTLVKPTQTLTLTCTFSGFSLSASGEGMGWIRQPPGKALEWLALIYWDADERYSPSLRSRLTITKDTSKNQVVLKMTNMNPVDTATYYCAHHSITTVVDYWGQGMLVTVSS
VL: QSALTQPASVSGSPGQSITISCTGTISDVGAFNYVSWYQQHPGRAPKLIIYDVSTRPSGISIRFSGSKSGNTASLTISGLQPEDEADYYCSSYSHTSLVFGTGTKVTVL
notes: heavy chain of BD57-028 (IGHV2-5*02, D56), not modified; light chain of BD57-028; IgG1; source: Expi 293, transfected, purified (protein A)

The assay addresses T1, SARS-CoV-2 WT RBD (SARS-CoV-2, WT (ancestral) strain, UniProt P0DTC2).
T1 construct: also called wild-type L452 RBD
In words: BLI; antibody (IgG1, 11 μg/mL) loaded on AHC2 biosensor to about 1.5 nm; RBD in solution, association 300 s, dissociation 600 s; PBS-TB (PBS, 0.02% v/v Tween-20, 0.1% w/v BSA); 25°C; 1,000 rpm; binding response less than 0.1 considered non-binding. The following applies: both partners purified. For orientation: BLI is a label-free optical method that tracks binding on a fibre tip over time.
In the case of B1, the binding result is listed as “binds”.
To B2 belongs “binds”; to B3, “binds”.
For B4 the value was “binds”.
On to B5, for which the binding result is on record as “binds”.
